Results taken from patent US20230357348A1 (AstraZeneca / MedImmune, published 2023).
Starred links: 1 amine or outer side, 2 acyl side, 3 side chain; linkers in the order of their positions; H or OH if unused. Non-standard residues stand in square brackets, D forms with d. Groups on a side chain read outwards from the residue. Primed or numbered codes have the meaning given here. No end group written: not given here. *: point of attachment. (PEG)2″ = polyethylene glycol 2 linker unit; C18 diacid = O=C(O)CCCCCCCCCCCCCCCCC(=O)*; γGlu = O=C(O)[C@H](CCC(=O)[*:2])N[*:1]; αMeF = C[C@](N)(Cc1ccccc1)C(=O)O; PEG2′ = polyethylene glycol 2; AEEA = NCCOCCOCC(=O)O; Aib = CC(C)(N)C(=O)O

B1: Peptide 109 (peptide)
peptide: HSQGS[αMeF]TSDVSK(Ac)[Aib]LDSK([AEEA-AEEA-γGlu-C18 diacid])AAQD[αMeF]VQ[Aib]IAN-NH2
modifications: N-terminus assumed
SMILES: CC[C@H](C)[C@H](NC(=O)C(C)(C)NC(=O)[C@H](CCC(N)=O)NC(=O)[C@@H](NC(=O)[C@](C)(Cc1ccccc1)NC(=O)[C@H](CC(=O)O)NC(=O)[C@H](CCC(N)=O)NC(=O)[C@H](C)NC(=O)[C@H](C)NC(=O)[C@H](CCCCNC(=O)COCCOCCNC(=O)COCCOCCNC(=O)CC[C@H](NC(=O)CCCCCCCCCCCCCCCCC(=O)O)C(=O)O)NC(=O)[C@H](CO)NC(=O)[C@H](CC(=O)O)NC(=O)[C@H](CC(C)C)NC(=O)C(C)(C)NC(=O)[C@H](CCCCNC(C)=O)NC(=O)[C@H](CO)NC(=O)[C@@H](NC(=O)[C@H](CC(=O)O)NC(=O)[C@H](CO)NC(=O)[C@@H](NC(=O)[C@](C)(Cc1ccccc1)NC(=O)[C@H](CO)NC(=O)CNC(=O)[C@H](CCC(N)=O)NC(=O)[C@H](CO)NC(=O)[C@@H](N)Cc1c[nH]cn1)[C@@H](C)O)C(C)C)C(C)C)C(=O)N[C@@H](C)C(=O)N[C@@H](CC(N)=O)C(N)=O
B2: Peptide 12 (peptide)
peptide: H[Aib]HGS[αMeF]TSDVSK[αMeF]LDSK([AEEA-AEEA-γGlu-C18 diacid])AARDFVQ[Aib]IANT-NH2
modifications: N-terminus assumed
SMILES: CC[C@H](C)[C@H](NC(=O)C(C)(C)NC(=O)[C@H](CCC(N)=O)NC(=O)[C@@H](NC(=O)[C@H](Cc1ccccc1)NC(=O)[C@H](CC(=O)O)NC(=O)[C@H](CCCNC(=N)N)NC(=O)[C@H](C)NC(=O)[C@H](C)NC(=O)[C@H](CCCCNC(=O)COCCOCCNC(=O)COCCOCCNC(=O)CC[C@H](NC(=O)CCCCCCCCCCCCCCCCC(=O)O)C(=O)O)NC(=O)[C@H](CO)NC(=O)[C@H](CC(=O)O)NC(=O)[C@H](CC(C)C)NC(=O)[C@](C)(Cc1ccccc1)NC(=O)[C@H](CCCCN)NC(=O)[C@H](CO)NC(=O)[C@@H](NC(=O)[C@H](CC(=O)O)NC(=O)[C@H](CO)NC(=O)[C@@H](NC(=O)[C@](C)(Cc1ccccc1)NC(=O)[C@H](CO)NC(=O)CNC(=O)[C@H](Cc1c[nH]cn1)NC(=O)C(C)(C)NC(=O)[C@@H](N)Cc1c[nH]cn1)[C@@H](C)O)C(C)C)C(C)C)C(=O)N[C@@H](C)C(=O)N[C@@H](CC(N)=O)C(=O)N[C@H](C(N)=O)[C@@H](C)O

The binders below were run against human GLP-1 receptor (hGLP-1R) (human, UniProt P43220 24-463) (assay: cell-based or functional assay).

hGLP-1R EC50 (pM) | Binder
1.92 pM | HSQGS[αMeF]TSDVSKILDSKAAQD[αMeF]VQ[Aib]IAN-NH2 (not fully specified (residue 17)) [Peptide 111]
698 pM | B1
0.627 pM | HSQGS[αMeF]TSDVSK(Ac)[Aib]LDSK([PEG2′-PEG2′-γGlu-γGlu-Stearyl])AAQD[αMeF]VQ[Aib]IAN-NH2 [Peptide 110]
0.258 pM | HSQGS[αMeF]TSDVSK[Aib]LDSK([(PEG)2″-(PEG)2″-γGlu-γGlu-Stearyl])AAQD[αMeF]VQ[Aib]IAN-NH2 [Peptide 100]
14.5 pM | B2

These binders were tested against human glucagon receptor (hGCGR) (human, UniProt P47871 26-477) (assay: cell-based or functional assay).
Sequence of human glucagon receptor (hGCGR) (P47871 26-477): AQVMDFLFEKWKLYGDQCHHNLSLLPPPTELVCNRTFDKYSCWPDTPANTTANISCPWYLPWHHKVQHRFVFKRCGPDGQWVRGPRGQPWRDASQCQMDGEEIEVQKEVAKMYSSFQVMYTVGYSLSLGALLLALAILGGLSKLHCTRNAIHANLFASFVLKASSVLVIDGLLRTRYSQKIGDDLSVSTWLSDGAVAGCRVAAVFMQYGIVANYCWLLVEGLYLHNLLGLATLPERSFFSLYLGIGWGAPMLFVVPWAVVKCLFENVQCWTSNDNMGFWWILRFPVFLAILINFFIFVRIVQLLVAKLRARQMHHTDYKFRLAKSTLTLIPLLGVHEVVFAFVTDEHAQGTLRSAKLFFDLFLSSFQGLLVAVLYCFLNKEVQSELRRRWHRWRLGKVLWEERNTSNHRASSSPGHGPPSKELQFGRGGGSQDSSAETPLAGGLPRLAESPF

hGluc-R EC50 (pM) | Binder
2.09 pM | HSQGS[αMeF]TSDVSKILDSKAAQD[αMeF]VQ[Aib]IAN-NH2 (not fully specified (residue 17)) [Peptide 111]
> 26800 pM | B1
48.5 pM | HSQGS[αMeF]TSDVSK(Ac)[Aib]LDSK([PEG2′-PEG2′-γGlu-γGlu-Stearyl])AAQD[αMeF]VQ[Aib]IAN-NH2 [Peptide 110]
40.5 pM | HSQGS[αMeF]TSDVSK[Aib]LDSK([(PEG)2″-(PEG)2″-γGlu-γGlu-Stearyl])AAQD[αMeF]VQ[Aib]IAN-NH2 [Peptide 100]
47.7 pM | B2
